test: yeast display, Sf9 membrane polyspecificity reagent, FACS + sequencing; frameworks hold sequencing errors
In short: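 Galactose induction of a Saccharomyces cerevisiae BJ5465 synthetic nanobody display library ran 36–48 hours. The cells were then stained for 1 hour at 4 °C with 10% biotinylated, detergent-solubilized Sf9 membrane reagent, pulled down on streptavidin microbeads and FACS-sorted into low and high (top ~1%) gates on expression and reagent-binding fluorescence. Labels for polyreactivity follow the gate of origin.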

Row | Sequence | polyreactivity (PSR sort gate)
1 | QVQLVESGGGLVQAGGSLRLSCAASGRTFTAYTMGWYRQAPGKERELVDSISSGVTYADSVKGRFTISRDNAKNTVYLQMNSLKPEDTAVYYCAARLWYVQGYVPYVHHRFDYWGQGTQVTVSS | low polyreactivity
2 | QVQLVESGGGLVQAGGSLRLSCAASGSIVPVYAMGWYRQAPGKEREFVAGINTIGGSTYYADSVKGRFTISRDNAKNTVYLQMNSLKPEDTAVYYCAATQYWNMYSWGQGTQVTVSS | low polyreactivity
3 | QVQLVESGGGLVQAGGSLRLSCAASGRTFWYYAMGWYRQAPGKEREFVAAISYSGDGTYYADSVKGRFTISRDNAKNTVYLQMNSLKPEDTAVYYCAAEWYDPTLPTAWSEYEYWGQGTQVTVSS | high polyreactivity
4 | QVQLVESGGGLVQAGGSLRLSCAASGFTFGSNTMGWYRQAPGKERELVAAITTSGDSTYYADSVKGRFTISRDNAKNTVYLQMNSLKPEDTAVYYCAAERRYGRYYRLVRLLGQGTQVTVSS | high polyreactivity
5 | QVQLVESGGGLVQAGGSHRLSCAASGLIFNYYAMGGYRQAPGKERELVASITGGDSTNYADSVKGRFTISRDNAKNTVYLQMNSLKPEDTAVYYCAAEFYGSSYGYRTYDYYYWGQGTQVTVSS | low polyreactivity
6 | QVQLVESGGGLVQAGGSLRLSCAASGLIFQGYAMGWYRQAPGKEREFVAVITWSGGSTYYADSVKGRFTISRDNAKNTVYLQMNSLKPEDTAVYYCADDDVWYDFDYWGQGTQVTVSS | low polyreactivity
7 | QVQLVESGGGLVQAGGSLRLSCAASGRTFNYYAMGWYRQAPGKERELVAAISWSGTPTYYADSVKGRFTISRDNAKNTVYLQMNSLKPEDTAVYYCAAYLVSYPRGNYIRYDYWGQGTQVTVSS | low polyreactivity
8 | QVKHVESGGGLVQAGCILRLSCSASGSTFARYAMGWYRQSPGKERELVAGISQSGGTTYYADSVKGRFTISRDNEKNTVYLQMNSLKPEDTAVYYCAARRWVAYTLEYWGQGTQVTVSS | high polyreactivity
9 | QVQLVESGGGLVQAGGSLRLSCDASGITFIRNGMGWYRQAPGKERELVAAISDTGARTYYADSVKGRFTISRDNAKNTVYLQMNSLKPEDTAVYYCAAEVRTRYLYSFRWDDYWGQGTQVTVSS | low polyreactivity
10 | QVQLVESGRGLVQAVGSLRLSSAASGSIFMWYTMGCYRQAPGKERELVAAISKSGGRTYYADSVKGRFTISRDNAKNTVYLQMNSMKPEDTAVYYCAKLYPYDSPVPDGHQFDYWGQGTQVTVSS | high polyreactivity
11 | QVQLVESGGGLVQAGGSLRLSCAASGSTFVGYAMGCYRQAPGKERELVATISWIGVRTYYADSVKGRFTISRDNAKNTVYLQMNSLKPEDTAVYYCANRKGYSARSFWRLYEPENDYWGQGTQVNVSS | high polyreactivity
12 | QVQLVESGGGVVQAGGSLRLSCAASGSIFRYYTRGGYRQAPGKVRELVAAISRSGGSTYYADSVKGRFTISRDNAKNTVYLQMNSLKPEDTAVYYCAARYKRAQGYREGDYWGQGTQVTVSS | high polyreactivity
13 | QVQLVESGGGLVQAGGSLRLSCAASGIIFSNYAMGWYRQAPGKERDLVAAITRSGGRTYYADSVKGRFTISRDNAKNTVYLQMNSLKPEDTAVYYCAATGRSGVLSSYYYWGQGTQVTVSS | high polyreactivity
14 | QVQLVESVGGLVEAGGRLGISCDDSGIIFRVNTIGCYRQAPGKERELVARSTGAGNKYYADSVKGRFTISRDNAKTTVYLQMNSLKPKDTAVYYCAVREFDNRRVIFYYWGQGTQVTVLS | high polyreactivity
15 | QVQLVESGGGLVQAGGSLRLSCAASGITFKYYAMGWYRQAPGKERELVAAISRGGGSTYYADSVKGRFTISRDNAKNTVYLQMNSLKPEDTAVYYCNAVFYSFIQSDYWGQGTQVTVSS | high polyreactivity
16 | QDQLVESGGGLVQAGGSLRLSCAASGFIFSPYAMGWYRQAPGKERELVAAINGGGRTYYADSVKGRFTISRDNAKNTVYLQMNILKPEDTAVYYCAVDPISQGHMDYWGQGTLVTVSS | low polyreactivity
17 | QVQLVESGGGLVQAGGSLLLSCAASGRTFWPYAMGWYRQAPGKERELVAAITSDGSTTYADSVTGRFTISRDNAKNTVYLQMNSLTPEDTAVYFCAAYGYYYYQTIPMDYWGQGTQVTVSS | low polyreactivity
18 | QVQLVESGGGLVQAGGSLRLSCAASGSTFAYYVMGWYRQAPGKERELVAAISRGGRTYYADSVKGRFTISRDNAKNTVYLQMNSLKPEDTAVSYCAKPYHQRSAKVDYWGQGTQVTVSS | low polyreactivity
19 | QVQLVESGGGLVQAGGSLSLSCAASGFTFTRYVMGWYRQAPGKERELVAAISINGGRTYYADSVKGSFTNSRDNAKNTVYLQMNSLKPEDTAVYYWAAYKTYGSKYVFVDPGEYYYWGQGTQVTVSS | high polyreactivity
20 | QVQPVESAGGLVQAGGSLRLSCAASGSTFARYAMGWFSQAPGKERELVAVITWTGGSTYADSVKGRFTISRDNAKNTVYLQMNSLNPEDTAVYYCNAVHATRRRLGYWGQGTQVTVSS | low polyreactivity
21 | QVQLVESGGGLDQAGGSLRLSCAASGIIFWYYAMGWYRQAPGKEMELVAAINWNGDSTHYADSVKGRFTISRDNAKNTVYLQMNILKPEDTAVYYCAARTYTLRGVYFSGYNYWGQATQVTVSS | low polyreactivity
22 | QVQLVESGGGLVQAGGSLRLSCAASGSIFTLYAMGSYRQAPGKERELVAAITWSGGSTYYADSVKGRFTISRDNAKNTVYLQMNSLKPEDTAVYYCAKDYLAGGPWEGHVEREYDYWGQGTQVTVSS | low polyreactivity

From the nanobody polyreactivity screen of Harvey et al. (2022)
